In patent US20120141441:

Test system: Cre recombinase (bacteriophage P1 ?)
Experiment: cell_activity
Settings: excision of reprogramming cassette in iPSC; typically 50% or more of clones; verified by Southern blot and PCR

**Q.** With “loxP sites flanking reprogramming cassette (p4FLR)” as the substance, how does the activity (% clones with EGFP loss) read?
**A.** > 50
